From paper PMC12221297, “Negative regulation of miRNA sorting into EVs is mediated by the capacity of RBP PCBP2 to impair the SYNCRIP-dependent miRNA loading” come the findings set out here.

This series has as its target PCBP2 recombinant (Origene TP522190) (Mus musculus, UniProt Q61990 1-362). As to the kind of experiment: pull-down; EMSA: REMSA binding buffer (LightShift kit), 4 ug extract, 0.5 pmol biotin-RNA, 30 min room temperature, native 6% PAGE 0.5x TBE; pull-down: streptavidin beads. The note with it: protein: commercial; label: 5' biotin. (Mobility shift assays separate free from complexed probe on a gel.)

Sequence of PCBP2 recombinant (Origene TP522190) (Q61990 whole entry): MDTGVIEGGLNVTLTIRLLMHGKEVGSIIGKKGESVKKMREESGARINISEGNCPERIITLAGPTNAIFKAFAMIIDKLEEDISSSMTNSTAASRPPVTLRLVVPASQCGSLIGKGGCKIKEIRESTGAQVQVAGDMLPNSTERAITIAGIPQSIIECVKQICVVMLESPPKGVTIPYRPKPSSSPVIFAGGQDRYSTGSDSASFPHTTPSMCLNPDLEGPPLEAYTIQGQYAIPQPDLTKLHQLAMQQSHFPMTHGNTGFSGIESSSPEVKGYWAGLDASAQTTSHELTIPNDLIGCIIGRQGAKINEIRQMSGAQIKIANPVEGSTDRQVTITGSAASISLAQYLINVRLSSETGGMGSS

For CUCCUACCUGUUAGCAUUAAC (ssRNA) [miR-155-3p WT (Table 1: miR-155b-3p WT)], the binding result is “binds”.
